Reference: patent publication US20110294135, “COMPOSITIONS AND METHODS FOR ANALYTE DETECTION AND QUANTITATION” (BioDesic, LLC, published 2011)

Key:
[1] = target: T1, LG-268-NRE (Protein LG fused to Zif268-NRE six-finger zinc finger protein) (Artificial Sequence); assay: EMSA; 0.03 mM protein, Tris-glycine, room temp 15-60 min, 4-20% acrylamide gel, SYBR Gold; detector complex visible, further shifted by bovine IgG; conditions: tags: C-terminal His tag (pET20b(+)); N-terminal Protein LG fusion
Method: Stock solutions of LG-268-NRE (0.1 mM), the DNA detection moiety (500 ng/μl for a 50-mer and 1 μg/μl for an 80- or 100-mers), the target analytes (Bovine IgG antibodies (Equitech Bio, B60-0010; Final concentration of 1 mg/ml), and loading buffer (Jule Tris-Glycine running buffer; Jule Inc.; Catalog Number: TGNRB10X) were combined at the same time and mixed in a microfuge tube in a final reaction volume of 75 μl. Final concentrations were as follows: 0.03 mM for LG-268-NRE, 100 ng/75 μl for the 50-mer, and 10 μg/75 μl for the 80- or 100-mers. The combined mixture was then allowed to sit for 15-60 minutes at room temperature (approximately 20-22° C.). Appropriate volumes of the controls and the mixed solution were then loaded into wells of acrylamide (50 μl) or agarose gels (75 μl) and run as described below. The agarose gels and the staining buffer are made with Jule Tris-Glycine running buffer (Jule Inc.; Catalog Number: TGNRB10X). The binding reactions are also performed with a range of protein concentrations and/or in the presence of salt, e.g., 50-100 mM KCl or NaCl. Molecular weight standards were: Bioline Hyperladder 1: BIO-33053; Hyperladder 2: BIO-33054; and Hyperladder 3: BIO-33055.

[2] = target: T1, LG-268-NRE (Protein LG fused to …); assay: EMSA; 0.03 mM protein, Tris-glycine, room temp 15-60 min, SYBR Gold; detector complex visible, further shifted by bovine IgG; conditions: tags: C-terminal His tag (pET20b(+)); N-terminal Protein LG fusion

| Binder | binding result [1] | binding result [2] |
| --- | --- | --- |
| 80-mer DNA detection moiety (dsDNA) DNA 1: TTTTGGGGTTGATAGAAAAGATAGAGGGTATAGTGAGTCGTATTAATTTCAGAATTCATTTCAAGGGTTCAGCGTGGGCG DNA 2: CGCCCACGCTGAACCCTTGAAATGAATTCTGAAATTAATACGACTCACTATACCCTCTATCTTTTCTATCAACCCCAAAA | binds | – |
| 100-mer DNA detection moiety (dsDNA) DNA 1: CCCACTTCATTGTGCCAAAGTTTTGGGGTTGATAGAAAAGATAGAGGGTATAGTGAGTCGTATTAATTTCAGAATTCATTTCAAGGGTTCAGCGTGGGCG DNA 2: CGCCCACGCTGAACCCTTGAAATGAATTCTGAAATTAATACGACTCACTATACCCTCTATCTTTTCTATCAACCCCAAAACTTTGGCACAATGAAGTGGG | – | binds |
